This passage reports EC50 results from patent US20110263827A1 (AbbVie / Abbott, published 2011).

Test [1] addresses T1, EGFR (UniProt P00533 25-645, limits assumed, biotinylated).
T1 construct: ELISA antigen; construct not described
Nature of the test: direct bind ELISA, N-term VD.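 Also: antibody or DVD-Ig preparations bound to immobilized target antigen on ELISA plates, 1 h at room temperature, TMB detection read as absorbance at 450 nm.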

The target of test [2] is T2, VEGF (UniProt P15692-4 27-191, limits assumed, biotinylated).
T2 construct: ELISA antigen
Kind of test: direct bind ELISA, C-term VD.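 Also: ELISA with antibody or DVD-Ig preparations applied to target antigen-coated plates for 1 h at room temperature, TMB colour development, absorbance read at 450 nm.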

Test [3] has as its target T2, VEGF. Kind of test: direct bind ELISA, N-term VD.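 Also: antibody or DVD-Ig preparations bound to immobilized target antigen on ELISA plates, 1 h at room temperature, TMB detection read as absorbance at 450 nm.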
For test [4], the target named is T1, EGFR. Kind of test: direct bind ELISA, C-term VD.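 Also: ELISA with antibody or DVD-Ig preparations applied to target antigen-coated plates for 1 h at room temperature, TMB colour development, absorbance read at 450 nm.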

B1: DVD809 (bispecific antibody)
VH: QVQLQESGPGLVKPSQTLSLTCTVSGYSISSDFAWNWIRQPPGKGLEWMGYISYSGNTRYQPSLKSRITISRDTSKNQFFLKLNSVTAADTATYYCVTAGRGFPYWGQGTLVTVSSASTKGPSVFPLAPEVQLVESGGGLVQPGGSLRLSCAASGYTFTNYGMNWVRQAPGKGLEWVGWINTYTGEPTYAADFKRRFTFSLDTSKSTAYLQMNSLRAEDTAVYYCAKYPHYYGSSHWYFDVWGQGTLVTVSS
VL: DIQMTQSPSSMSVSVGDRVTITCHSSQDINSNIGWLQQKPGKSFKGLIYHGTNLDDGVPSRFSGSGSGTDYTLTISSLQPEDFATYYCVQYAQFPWTFGGGTKLEIKRTVAAPDIQMTQSPSSLSASVGDRVTITCSASQDISNYLNWYQQKPGKAPKVLIYFTSSLHSGVPSRFSGSGSGTDFTLTISSLQPEDFATYYCQQYSTVPWTFGQGTKVEIKR
notes: DVD-Ig; HC L, LC S; variable parts only
For B1, the EC50 worked out at 7.34 nM in the test with EGFR [1] and 0.23 nM with VEGF [2].

B2: DVD337 (bispecific antibody)
VH: QVQLQESGPGLVKPSQTLSLTCTVSGYSISSDFAWNWIRQPPGKGLEWMGYISYSGNTRYQPSLKSRITISRDTSKNQFFLKLNSVTAADTATYYCVTAGRGFPYWGQGTLVTVSSASTKGPEVQLVESGGGLVQPGGSLRLSCAASGYTFTNYGMNWVRQAPGKGLEWVGWINTYTGEPTYAADFKRRFTFSLDTSKSTAYLQMNSLRAEDTAVYYCAKYPHYYGSSHWYFDVWGQGTLVTVSS
VL: DIQMTQSPSSMSVSVGDRVTITCHSSQDINSNIGWLQQKPGKSFKGLIYHGTNLDDGVPSRFSGSGSGTDYTLTISSLQPEDFATYYCVQYAQFPWTFGGGTKLEIKRTVAAPDIQMTQSPSSLSASVGDRVTITCSASQDISNYLNWYQQKPGKAPKVLIYFTSSLHSGVPSRFSGSGSGTDFTLTISSLQPEDFATYYCQQYSTVPWTFGQGTKVEIKR
notes: DVD-Ig; HC S, LC S; variable parts only
With B2, the EC50 amounted to 6.5 nM with EGFR [1] and 0.57 nM with VEGF [2].

B3: DVD819 (bispecific antibody)
VH: QVQLQESGPGLVKPSQTLSLTCTVSGYSISSDFAWNWIRQPPGKGLEWMGYISYSGNTRYQPSLKSRITISRDTSKNQFFLKLNSVTAADTATYYCVTAGRGFPYWGQGTLVTVSSASTKGPSVFPLAPEVQLVESGGGLVQPGGSLRLSCAASGFTISDYWIHWVRQAPGKGLEWVAGITPAGGYTYYADSVKGRFTISADTSKNTAYLQMNSLRAEDTAVYYCARFVFFLPYAMDYWGQGTLVTVSS
VL: DIQMTQSPSSMSVSVGDRVTITCHSSQDINSNIGWLQQKPGKSFKGLIYHGTNLDDGVPSRFSGSGSGTDYTLTISSLQPEDFATYYCVQYAQFPWTFGGGTKLEIKRTVAAPDIQMTQSPSSLSASVGDRVTITCRASQDVSTAVAWYQQKPGKAPKLLIYSASFLYSGVPSRFSGSGSGTDFTLTISSLQPEDFATYYCQQSYTTPPTFGQGTKVEIKR
notes: as for B1
B3: the EC50 with EGFR [1] is 12.2 nM; in the test with VEGF [2], 36.4 nM.

B4: DVD757 (bispecific antibody)
VH: QVQLQESGPGLVKPSQTLSLTCTVSGYSISSDFAWNWIRQPPGKGLEWMGYISYSGNTRYQPSLKSRITISRDTSKNQFFLKLNSVTAADTATYYCVTAGRGFPYWGQGTLVTVSSASTKGPEVQLVESGGGLVQPGGSLRLSCAASGFTISDYWIHWVRQAPGKGLEWVAGITPAGGYTYYADSVKGRFTISADTSKNTAYLQMNSLRAEDTAVYYCARFVFFLPYAMDYWGQGTLVTVSS
VL: DIQMTQSPSSMSVSVGDRVTITCHSSQDINSNIGWLQQKPGKSFKGLIYHGTNLDDGVPSRFSGSGSGTDYTLTISSLQPEDFATYYCVQYAQFPWTFGGGTKLEIKRTVAAPDIQMTQSPSSLSASVGDRVTITCRASQDVSTAVAWYQQKPGKAPKLLIYSASFLYSGVPSRFSGSGSGTDFTLTISSLQPEDFATYYCQQSYTTPPTFGQGTKVEIKR
notes: as for B2
For B4, the EC50 with EGFR [1] amounted to 14.5 nM; with VEGF [2], 528 nM.

B5: DVD849 (bispecific antibody)
VH: QVQLQESGPGLVKPSQTLSLTCTVSGYSISSDFAWNWIRQPPGKGLEWMGYISYSGNTRYQPSLKSRITISRDTSKNQFFLKLNSVTAADTATYYCVTAGRGFPYWGQGTLVTVSSASTKGPEVQLVESGGGLVQPGGSLRLSCAASGFTISDYWIHWVRQAPGKGLEWVAGITPAGGYTYYADSVKGRFTISADTSKNTAYLQMNSLRAEDTAVYYCARFVFFLPYAMDYWGQGTLVTVSS
VL: DIQMTQSPSSMSVSVGDRVTITCHSSQDINSNIGWLQQKPGKSFKGLIYHGTNLDDGVPSRFSGSGSGTDYTLTISSLQPEDFATYYCVQYAQFPWTFGGGTKLEIKRTVAAPSVFIFPPDIQMTQSPSSLSASVGDRVTITCRASQDVSTAVAWYQQKPGKAPKLLIYSASFLYSGVPSRFSGSGSGTDFTLTISSLQPEDFATYYCQQSYTTPPTFGQGTKVEIKR
notes: DVD-Ig; HC S, LC L; variable parts only
Regarding B5, the EC50 is 12.3 nM with EGFR [1] and 59.6 nM with VEGF [2].

B6: DVD851 (bispecific antibody)
VH: QVQLQESGPGLVKPSQTLSLTCTVSGYSISSDFAWNWIRQPPGKGLEWMGYISYSGNTRYQPSLKSRITISRDTSKNQFFLKLNSVTAADTATYYCVTAGRGFPYWGQGTLVTVSSASTKGPEVQLVESGGGLVQPGGSLRLSCAASGFTINASWIHWVRQAPGKGLEWVGAIYPYSGYTNYADSVKGRFTISADTSKNTAYLQMNSLRAEDTAVYYCARWGHSTSPWAMDYWGQGTLVTVSS
VL: DIQMTQSPSSMSVSVGDRVTITCHSSQDINSNIGWLQQKPGKSFKGLIYHGTNLDDGVPSRFSGSGSGTDYTLTISSLQPEDFATYYCVQYAQFPWTFGGGTKLEIKRTVAAPSVFIFPPDIQMTQSPSSLSASVGDRVTITCRASQVIRRSLAWYQQKPGKAPKLLIYAASNLASGVPSRFSGSGSGTDFTLTISSLQPEDFATYYCQQSNTSPLTFGQGTKVEIKR
notes: as for B5
As for B6, the EC50 with EGFR [1] was 9.36 nM; in the test with VEGF [2] it was 28.4 nM.

B7: DVD839 (bispecific antibody)
VH: QVQLQESGPGLVKPSQTLSLTCTVSGYSISSDFAWNWIRQPPGKGLEWMGYISYSGNTRYQPSLKSRITISRDTSKNQFFLKLNSVTAADTATYYCVTAGRGFPYWGQGTLVTVSSASTKGPEVQLVESGGGLVQPGGSLRLSCAASGYTFTNYGMNWVRQAPGKGLEWVGWINTYTGEPTYAADFKRRFTFSLDTSKSTAYLQMNSLRAEDTAVYYCAKYPHYYGSSHWYFDVWGQGTLVTVSS
VL: DIQMTQSPSSMSVSVGDRVTITCHSSQDINSNIGWLQQKPGKSFKGLIYHGTNLDDGVPSRFSGSGSGTDYTLTISSLQPEDFATYYCVQYAQFPWTFGGGTKLEIKRTVAAPSVFIFPPDIQMTQSPSSLSASVGDRVTITCSASQDISNYLNWYQQKPGKAPKVLIYFTSSLHSGVPSRFSGSGSGTDFTLTISSLQPEDFATYYCQQYSTVPWTFGQGTKVEIKR
notes: as for B5
In the case of B7, the figures for the EC50 in the test with EGFR [1] and in the test with VEGF [2] were 12.5 nM and 0.26 nM, respectively.

B8: DVD780 (bispecific antibody)
VH: EVQLVESGGGLVQPGGSLRLSCAASGYTFTNYGMNWVRQAPGKGLEWVGWINTYTGEPTYAADFKRRFTFSLDTSKSTAYLQMNSLRAEDTAVYYCAKYPHYYGSSHWYFDVWGQGTLVTVSSASTKGPSVFPLAPQVQLQESGPGLVKPSQTLSLTCTVSGYSISSDFAWNWIRQPPGKGLEWMGYISYSGNTRYQPSLKSRITISRDTSKNQFFLKLNSVTAADTATYYCVTAGRGFPYWGQGTLVTVSS
VL: DIQMTQSPSSLSASVGDRVTITCSASQDISNYLNWYQQKPGKAPKVLIYFTSSLHSGVPSRFSGSGSGTDFTLTISSLQPEDFATYYCQQYSTVPWTFGQGTKVEIKRTVAAPSVFIFPPDIQMTQSPSSMSVSVGDRVTITCHSSQDINSNIGWLQQKPGKSFKGLIYHGTNLDDGVPSRFSGSGSGTDYTLTISSLQPEDFATYYCVQYAQFPWTFGGGTKLEIKR
notes: DVD-Ig; HC L, LC L; variable parts only
As for B8, the results for the EC50 with VEGF [3] and in the test with EGFR [4] were 2.19 nM and 409 nM, respectively.

B9: DVD790 (bispecific antibody)
VH: EVQLVESGGGLVQPGGSLRLSCAASGFTISDYWIHWVRQAPGKGLEWVAGITPAGGYTYYADSVKGRFTISADTSKNTAYLQMNSLRAEDTAVYYCARFVFFLPYAMDYWGQGTLVTVSSASTKGPSVFPLAPQVQLQESGPGLVKPSQTLSLTCTVSGYSISSDFAWNWIRQPPGKGLEWMGYISYSGNTRYQPSLKSRITISRDTSKNQFFLKLNSVTAADTATYYCVTAGRGFPYWGQGTLVTVSS
VL: DIQMTQSPSSLSASVGDRVTITCRASQDVSTAVAWYQQKPGKAPKLLIYSASFLYSGVPSRFSGSGSGTDFTLTISSLQPEDFATYYCQQSYTTPPTFGQGTKVEIKRTVAAPSVFIFPPDIQMTQSPSSMSVSVGDRVTITCHSSQDINSNIGWLQQKPGKSFKGLIYHGTNLDDGVPSRFSGSGSGTDYTLTISSLQPEDFATYYCVQYAQFPWTFGGGTKLEIKR
notes: as for B8
Turning to B9, the EC50 with VEGF [3] was 15.9 nM; with EGFR [4], 76.8 nM.

B10: DVD821 (bispecific antibody)
VH: QVQLQESGPGLVKPSQTLSLTCTVSGYSISSDFAWNWIRQPPGKGLEWMGYISYSGNTRYQPSLKSRITISRDTSKNQFFLKLNSVTAADTATYYCVTAGRGFPYWGQGTLVTVSSASTKGPSVFPLAPEVQLVESGGGLVQPGGSLRLSCAASGFTINASWIHWVRQAPGKGLEWVGAIYPYSGYTNYADSVKGRFTISADTSKNTAYLQMNSLRAEDTAVYYCARWGHSTSPWAMDYWGQGTLVTVSS
VL: DIQMTQSPSSMSVSVGDRVTITCHSSQDINSNIGWLQQKPGKSFKGLIYHGTNLDDGVPSRFSGSGSGTDYTLTISSLQPEDFATYYCVQYAQFPWTFGGGTKLEIKRTVAAPDIQMTQSPSSLSASVGDRVTITCRASQVIRRSLAWYQQKPGKAPKLLIYAASNLASGVPSRFSGSGSGTDFTLTISSLQPEDFATYYCQQSNTSPLTFGQGTKVEIKR
notes: as for B1
Consider B10, for which the EC50 was found to be 6.96 nM with EGFR [1] and 11.1 nM with VEGF [2].

B11: DVD759 (bispecific antibody)
VH: QVQLQESGPGLVKPSQTLSLTCTVSGYSISSDFAWNWIRQPPGKGLEWMGYISYSGNTRYQPSLKSRITISRDTSKNQFFLKLNSVTAADTATYYCVTAGRGFPYWGQGTLVTVSSASTKGPEVQLVESGGGLVQPGGSLRLSCAASGFTINASWIHWVRQAPGKGLEWVGAIYPYSGYTNYADSVKGRFTISADTSKNTAYLQMNSLRAEDTAVYYCARWGHSTSPWAMDYWGQGTLVTVSS
VL: DIQMTQSPSSMSVSVGDRVTITCHSSQDINSNIGWLQQKPGKSFKGLIYHGTNLDDGVPSRFSGSGSGTDYTLTISSLQPEDFATYYCVQYAQFPWTFGGGTKLEIKRTVAAPDIQMTQSPSSLSASVGDRVTITCRASQVIRRSLAWYQQKPGKAPKLLIYAASNLASGVPSRFSGSGSGTDFTLTISSLQPEDFATYYCQQSNTSPLTFGQGTKVEIKR
notes: as for B2
With B11, the EC50 is 7.01 nM with EGFR [1] and 128 nM with VEGF [2].
